Laboratory results reported in IntAct's records for PubMed 22759634.

B1: DNA annealing helicase and endonuclease ZRANB3 (Homo sapiens), Q5FWF4 (parent)
chain: MPRVHNIKKSLTPHISCVTNESDNLLDFLPDRLRAKLLPFQKDGIIFALKRNGRCMVADEMGLGKTIQAIGITYFYKEEWPLLIVVPSSLRYPWTEEIEKWIPELSPEEINVIQNKTDVRRMSTSKVTVLGYGLLTADAKTLIDALNNQNFKVVIVDESHYMKSRNATRSRILLPIVQKARRAILLTGTPALGRPEELFMQIEALFPQKFGRWTDYAKRYCNAHIRYFGKRPQWDCRGASNLNELHQLLSDIMIRRLKTEVLTQLPPKVRQRIPFDLPSAAAKELNTSFEEWEKIMRTPNSGAMETVMGLITRMFKQTAIAKAGAVKDYIKMMLQNDSLKFLVFAHHLSMLQACTEAVIENKTRYIRIDGSVSSSERIHLVNQFQKDPDTRVAILSIQAAGQGLTFTAASHVVFAELYWDPGHIKQAEDRAHRIGQCSSVNIHYLIANGTLDTLMWGMLNRKAQVTGSTLNGRKEKIQAEEGDKEKWDFLQFAEAWTPNDSSEELRKEALFTHFEKEKQHDIRSFFVPQPKKRQLMTSCDESKRFREENTVVSSDPTKTAARDIIDYESDVEPETKRLKLAASEDHCSPSEETPSQSKQIRTPLVESVQEAKAQLTTPAFPVEGWQCSLCTYINNSELPYCEMCETPQGSAVMQIDSLNHIQDKNEKDDSQKDTSKKVQTISDCEKQALAQSEPGQLADSKEETPKIEKEDGLTSQPGNEQWKSSDTLPVYDTLMFCASRNTDRIHIYTKDGKQMSCNFIPLDIKLDLWEDLPASFQLKQYRSLILRFVREWSSLTAMKQRIIRKSGQLFCSPILALEEITKQQTKQNCTKRYITKEDVAVASMDKVKNVGGHVRLITKESRPRDPFTKKLLEDGACVPFLNPYTVQADLTVKPSTSKGYLQAVDNEGNPLCLRCQQPTCQTKQACKANSWDSRFCSLKCQEEFWIRSNNSYLRAKVFETEHGVCQLCNVNAQELFLRLRDAPKSQRKNLLYATWTSKLPLEQLNEMIRNPGEGHFWQVDHIKPVYGGGGQCSLDNLQTLCTVCHKERTARQAKERSQVRRQSLASKHGSDITRFLVKK

Variants of: B1
Settings: with pcna_human PCNA

| effect of a mutation on the interaction | Variant |
| --- | --- |
| decreasing interaction strength | Q519A;F525A;F526A;Y632A |

Variants of: B1
Settings: with pcna_human PCNA
Remark: another data set of the same source

| effect of a mutation on the interaction | Variant |
| --- | --- |
| disrupting interaction strength | Q519A;F525A;F526A |
